Reference: patent US20260242448A1

Molecular target: S protein of the SARS-CoV-2 prototype strain on pseudo-virus (SARS-CoV-2 prototype strain) (UniProt P0DTC2)
Experiment: cell-based or functional assay

LY-CoV1404 (antibody), sequence (VH): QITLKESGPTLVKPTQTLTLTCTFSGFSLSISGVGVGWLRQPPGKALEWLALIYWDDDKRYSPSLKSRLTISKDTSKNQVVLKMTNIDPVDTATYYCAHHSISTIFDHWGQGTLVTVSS
LY-CoV1404 (antibody), sequence (VL): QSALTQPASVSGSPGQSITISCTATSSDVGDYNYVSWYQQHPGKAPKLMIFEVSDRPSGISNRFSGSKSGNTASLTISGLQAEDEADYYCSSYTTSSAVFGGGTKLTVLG

Substance: LY-CoV1404 (antibody)
- Neutralization activity (IC50) against pseudo-virus: 1.19 ng/mL
